US20230105029A1 (CHIA TAI TIANQING PHARMACEUTICAL GROUP, published 2023)
Where a chain is given by its changes, count along the chain named. Blank lines part the entries; values can stand above or below the binder they belong to.

How the values were obtained:
[1] = target: T1, recombinant human IL4Rα-his protein (in house made) (human, UniProt P24394 26-232, limits assumed); assay: competitive ELISA: coated human IL4Rα-his, blocked ligand biotin human IL4
T1 construct: also called Human IL4Ra-his
Experimental: (§1) The activity of the anti-IL4Rα antibodies of the disclosure to block IL4-IL4Rα interaction was measured in a competitive ELISA assay. Briefly, 100 μl human IL4Rα-his proteins (prepared in-house with SEQ ID NO: 57) were coated on 96-well micro plates at 2 μg/mL in PBS overnight at 4° C. The next day, plates were washed with wash buffer (PBS+0.05% w/v Tween-20, PBST), and blocked with 5% w/v non-fatty milk in PBST for 2 hours at 37° C. Plates were then washed again using wash buffer.
(§2) Serially diluted anti-IL4Rα antibodies or the controls (starting at 80 nM with a 4-fold serial dilution) in 2.5% w/v non-fatty milk in PBST, 100 μl per well, were added to the IL4Rα bound plates, and incubated with the human IL4Rα-his proteins at 37° C. for 40 minutes. Plates were washed 4 times using wash buffer, and then added and incubated for 40 minutes at 37° C. with 100 μl/well of 0.56 nM biotin-labeled human IL4 protein (Sino biological inc., Cat #11846-HNAE). Plates were washed again using wash buffer. Thereafter, the plates were added with 100 μl/well of streptavidin conjugated HRP (1:10000 dilution in PBST buffer, Jackson Immunoresearch, Cat #016-030-084) and incubated for 40 minutes at 37° C. Plates were washed again using wash buffer. Finally, TMB was added and the reaction was stopped using 1M H₂SO₄, and the absorbance was read at 450 nm. Data was analyzed using Graphpad Prism software and IC₅₀ values were reported.

[2] = target: T2, human IL4Rα expressed on 293F-IL4Rα cells (human, UniProt P24394 26-825); assay: flow cytometry on 293F-IL4Rα cells, blocked ligand biotin human IL4
T2 construct: whole, on cells; also called cell surface human IL4Rα
Experimental: (§3) Then, 1×10⁵ cells per well in 96 well-plates were incubated in 100 μL of the anti-IL4Rα antibodies or controls of various concentrations (starting at 80 nM with a 4-fold serial dilution) in FACS buffer for 40 minutes on ice. The plates were washed twice with FACS buffer, and added and incubated for 40 minutes at 4° C. in dark with 100 μl/well 1.67 nM biotin-labeled human IL4 protein (Sino biological inc., Cat #11846-HNAE). The plates were washed twice with FACS buffer, and then added and incubated for 40 minutes at 4° C. in dark with 100 μl/well R-Phycoerythrin Streptavidin (1:500 dilution in FACS buffer, Jackson Immunoresearch, Cat #016-110-084). Cells were washed twice and resuspended in FACS buffer. Fluorescence was measured using a Becton Dickinson FACS Canto II-HTS equipment. Data was analyzed using Graphpad Prism software and IC₅₀ values were reported.

[3] = target: T2, human IL4Rα expressed on 293F-IL4Rα …; assay: flow cytometry, blocks biotin-IL4 binding to 293F-IL4Rα cells
Experimental: as §3

[4] = target: T1, recombinant human IL4Rα-his protein (in …); assay: competitive ELISA: coated human IL4Rα-his, blocked ligand biotin human IL4; remark: listed apart in the source
[5] = target: human IL4Rα expressed on HEK293T-IL4Rα-STAT6-STAT6LUC-LB2 cells (human, UniProt P24394 26-825); assay: cell-based or functional assay
[6] = target: T1, recombinant human IL4Rα-his protein (in …); assay: capture ELISA: antibody captured on anti-IgG Fc plate, biotin human IL4Rα-his detected
Experimental: Plates were washed once with wash buffer (PBS+0.05% w/v Tween-20, PBST) and then blocked with 200 μl/well blocking buffer (5% w/v non-fatty milk in PBST) for 2 hours at 37° C. Plates were washed again and incubated with 100 μl/well serially diluted anti-IL4Rα antibodies of the disclosure, the benchmark or negative control hIgG (human immunoglobulin (pH4) for intravenous injection, Hualan Biological Engineering Inc.) (5-fold dilution in 2.5% w/v non-fatty milk in PBST, starting at 66.7 nM) for 40 minutes at 37° C., and then washed 4 times again. Plates containing captured anti-IL4Rα antibodies were incubated with biotin-labeled human IL4Rα-his protein (in house made with SEQ ID NO: 57, 0.14 nM in 2.5% w/v non-fatty milk in PBST, 100 μl/well) for 40 minutes at 37° C., washed 4 times, and incubated with streptavidin conjugated HRP (1:10000 dilution in PBST, Jackson Immuno Research, Cat #016-030-084, 100 μl/well) for 40 minutes at 37° C. After a final wash, plates were incubated with 100 μl/well ELISA substrate TMB (Innoreagents, Cat #TMB-S-002). The reaction was stopped in 10 minutes at 25° C. with 50 μl/well 1M H₂SO₄, and the absorbance was read at 450 nm. Data was analyzed using Graphpad Prism software and EC₅₀ values were reported.

[7] = target: T1, recombinant human IL4Rα-his protein (in …); assay: competitive ELISA, blocks biotin-IL4 binding to coated IL4Rα-his
Experimental: as §1, §2

[8] = target: T1, recombinant human IL4Rα-his protein (in …); assay: as above; remark: listed apart in the source
Experimental: as §2

- IC50 [1]: 0.812 nM
- IC50 [2]: 0.44 nM
- IC50 [3]: 0.44 nM
- IC50 [4]: 1.89 nM
- Inhibition on IL4 induced STAT6 phosphorylation (IC50, nM) [5]: 0.19 nM
- Inhibition on IL13 induced STAT6 phosphorylation (IC50, nM) [5]: 0.27 nM
- EC50 [6]: 0.0759 nM
- IC50 [7]: 0.81 nM
B1: mouse antibody C2C1A1A1 (antibody, V domains shown)
VH: EVQLVESGGGLVQPGGSLKLSCAASGFTFSTYGMSWVRQTPDKRLELVATINSNGGSTSYPDSVKGRFTISRDNAKNTLYLQMSSLKSEDTAMFYCARFFRFRNAMDYWGQGTSVTVSS
VL: DIQMTQSPASLSASVGETVTITCRTSENIYSYLAWYQQKQGKSPQFLVYNAKTLAEGVPSRFSGSGSGTQFSLNINSLQSEDFGSYYCQHYYGPPTWTFGGGTKLEIK
notes: Mouse hybridoma mAb; also called Mouse C2C1A1A1

- IC50 [4]: 3.12 nM
- Inhibition on IL4 induced STAT6 phosphorylation (IC50, nM) [5]: 0.27 nM
- Inhibition on IL13 induced STAT6 phosphorylation (IC50, nM) [5]: 0.56 nM
- IC50 [8]: 2.46 nM
B2: chimeric antibody C2C1A1A1 (antibody, human IgG4 S228P, kappa, V domains shown)
VH: B1 VH
VL: DIQMTQSPASLSASVGETVTITCRTSENIYSYLAWYQQKQGKSPQFLVYNAKTLAEGVPSRFSGSGSGTQFSLNINSLQSEDFGSYYCQHYYGPPTWTFGGGTKLEIKR
notes: Mouse variable domains on human IgG4/kappa; also called Chimeric C2C1A1A1; chC2C1A1A1

- IC50 [1]: 0.726 nM
- IC50 [2]: 0.397 nM
- IC50 [3]: 0.4 nM
- EC50 [6]: 0.129 nM
- IC50 [7]: 0.73 nM
B3: mouse antibody C2B2F7B7 (antibody, V domains shown)
VH: B1 VH with S59N, F94Y, F102I
VL: B1 VL with T25A, N74K, S80P, P94T
notes: Mouse hybridoma mAb

- IC50 [1]: 0.81 nM
- IC50 [2]: 0.804 nM
- IC50 [3]: 0.8 nM
- IC50 [4]: 1.64 nM
- Inhibition on IL4 induced STAT6 phosphorylation (IC50, nM) [5]: 0.26 nM
- Inhibition on IL13 induced STAT6 phosphorylation (IC50, nM) [5]: 0.6 nM
- IC50 [8]: 1 nM
- EC50 [6]: 0.0393 nM
- IC50 [7]: 0.81 nM
B4: mouse antibody B8G11F2B7G5E8 (antibody, V domains shown)
VH: EVQLQQSGADLVRPGASVKLSCTASGFNIKDTYMHWVKQRPEQGLEWVGRIDPTNGYTIYASKFQGKATITADTSSNTAYMQLSSLTSGDTAVYHCVSRRPWFAYWGQGTLVTVSA
VL: DILMTQTPLSLPVSLGAQASISCRSSQSIVHSNGNTYLEWYLQKPGQSPKLLIYKVTNRFSGVPDRFSGSGSGTDFTLKISRVEAEDLGIYYCFQGSHVPYTFGGGTKLEIK
notes: Mouse hybridoma mAb; also called Mouse B8G11F2B7G5E8; mAb B8G11F2B7G5E8

- IC50 [4]: 1.82 nM
- Inhibition on IL4 induced STAT6 phosphorylation (IC50, nM) [5]: 0.26 nM
- Inhibition on IL13 induced STAT6 phosphorylation (IC50, nM) [5]: 0.76 nM
- IC50 [8]: 1.42 nM
B5: chimeric antibody B8G11F2B7G5E8 (antibody, human IgG4 S228P, kappa, V domains shown)
VH: B4 VH
VL: DILMTQTPLSLPVSLGAQASISCRSSQSIVHSNGNTYLEWYLQKPGQSPKLLIYKVTNRFSGVPDRFSGSGSGTDFTLKISRVEAEDLGIYYCFQGSHVPYTFGGGTKLEIKR
notes: Mouse variable domains on human IgG4/kappa; also called Chimeric B8G11F2B7G5E8; chB8G11F2B7G5E8

- IC50 [1]: 1.8 nM
- IC50 [2]: 0.787 nM
- IC50 [3]: 0.78 nM
- EC50 [6]: 0.0644 nM
- IC50 [7]: 1.8 nM
B6: mouse antibody B1D2F7D3B5 (antibody, V domains shown)
VH: EVKLVESGGGLVKPGGSLKLSCAASGFTFSSYAMSWVRQTPEKRLEWVASISSGDSTYYLDSVKGRFTISRDNAMNILYLQMSSLRSEDTAVYYCERSGGSAPYWGQGTLVSVSA
VL: QIVLTQSPAIMSASPGEMVTISCSASSSVSYMYWYQQKPGSSPKPWIYRTSNLASGVPARFSGSGSGTSYSLTISSMEAEDAATYYCQQYHSFPLTFGAGTKLELK
notes: Mouse hybridoma mAb

- IC50 [1]: 2.88 nM
- IC50 [2]: 0.748 nM
- IC50 [3]: 0.75 nM
- EC50 [6]: 0.0703 nM
- IC50 [7]: 2.88 nM
B7: mouse antibody B9D1D11F8D8 (antibody, V domains shown)
VH: B6 VH with M75R, M82V, V92M, S112T
VL: B6 VL with E17D, S30N
notes: Mouse hybridoma mAb
